According to patent US7919464B2, “Use of a peptide that interacts with αvβ3 integrin of endothelial cell” (Kyungpook National University Industry-Academic Cooperation …, priority 2003, dated 2011):

How the values were obtained:
HUVECs cell membrane = assay: Binding of biotin-βig-h3 to HUVECs surface (Western immunoblotting); parameters: species or system human; conditions: biotin-βig-h3, 4° C. 5 hours
Procedure: To confirm that HUVECs adhesion that is mediated by βig-h3 depends on αvβ3 integrin, the present inventors tested the binding affinity of βig-h3 in the presence of an antibody that specifically blocks the function of the integrin. This binding assay was performed according to the method described by Maile, L. A., et al., J. Biol. Chem., […].
First, HUVECs were suspended in medium at a density of 1×10^5 cells/ml. 1 ml of the cell suspension was preincubated with anti-αvβ3 antibody (LM609) or anti-αvβ5 antibody (P1F6) at 37° C. for 30 minutes. Thereafter, the preincubated cells were incubated with biotinylated βig-h3 (hereinafter, referred to as “biotin-βig-h3”) in a serum-free medium containing 0.1% BSA at 4° C. for 5 hours. The biotin-βig-h3 was added at concentrations of 1×10^−10, 1×10^−9 and 5×10^−9 μm, respectively. Then, the cells were washed three times with PBS buffer (pH 7.4), and dissolved at 4° C. in ice-cold buffer A (10 mM Tris-Cl, pH 7.4, 150 mM NaCl, 1% Nonidet P-40, 1% sodium deoxycholate, 0.5% SDS, 0.02% sodium azide, 1 mM EDTA, 1 mM phenylmethylsulfonyl fluoride). The cell lysates were clarified by centrifugation at 13,000 rpm for 30 minutes at 4° C. Equal amounts of protein were then separated by SDS-PAGE, 8% gel. The amount of biotin-βig-h3 was determined by Western immuno-blotting. […]

HUVECs = HUVECs migration assay in transwell plate coated with βig-h3; type: cell-based, human; conditions: 10 μg/ml βig-h3 His-β-b coated; 6-8 hours; data not shown
Procedure: Firstly, to examine whether βig-h3 is involved in the migration of endothelial cells, the present inventors performed cell migration assay. The cell migration assay was performed in a transwell plate (8 μm pore size, Costar, Cambridge, Mass.). The undersurface of the membrane was coated with the recombinant βig-h3 His-β-b protein (10 μg/ml) prepared in Example 1 at 4° C., and then, blocked for 1 hour at room temperature with PBS buffer containing 2% BSA. Meanwhile, HUVECs were added with an anti-αvβ3 antibody (LM609) or an anti-αvβ5 antibody (P1F6) and preincubated at 37° C. for 30 minutes. A control was added with mouse IgG. Then, the HUVECs preincubated with the antibody were suspended in medium at a density of 3×10^5 cells/ml, and 0.1 ml of the cell suspension was added to the upper compartment of the filter. The cells were allowed to migrate at 37° C. for 6-8 hours.
Migration was terminated by removing the cells from the upper compartment of the filter with a cotton swab. The filters were fixed with 8% glutaraldehyde and stained with crystal violet. The extent of cell migration was determined by light microscope, and within each well, cell counting was done in nine randomly selected fields HPF (Microscopic high power fields, ×200).
Then, the present inventors examined whether the migration of endothelial cells is inhibited by the YH18 synthetic peptide. […]

B1: βig-h3: recombinant human βig-h3 protein that expresses all of four fas-1 domains; biotinylated form used in binding assay (protein)
chain: YQRKICGKSTVISYECCPGYEKVPGEKGCPAALPLSNLYETLGVVGSTTTQLYTDRTEKLRPEMEGPGSFTIFAPSNEAWASLPAEVLDSLVSNVNIELLNALRYHMVGRRVLTDELKHGMTLTSMYQNSNIQIHHYPNGIVTVNCARLLKADHHATNGVVHLIDKVISTITNNIQQIIEIEDTFETLRAAVAASGLNTMLEGNGQYTLLAPTNEAFEKIPSETLNRILGDPEALRDLLNNHILKSAMCAEAIVAGLSVETLEGTTLEVGCSGDMLTINGKAIISNKDILATNGVIHYIDELLIPDSAKTLFELAAESDVSTAIDLFRQAGLGNHLSGSERLTLLAPLNSVFKDGTPPIDAHTRNLLRNHIIKDQLASKYLYHGQTLETLGGKKLRVFVYRNSLCIENSCIAAHDKRGRYGTLFTMDRVLTPPMGTVMDVLKGDNRFSMLVAAIQSAGLTETLNREGVYTVFAPTNEAFRALPPRERSRLLGDAKELANILKYHIGDEILVSGGIGALVRLKSLQGDKLEVSLKNNVVSVNKEPVAEPDIMATNGVVHVITNVLQPPANRPQERGDELADSALEI
HUVECs cell membrane
  binding of βig-h3 to HUVECs surface: bound to HUVECs surface in a dose-dependent manner
HUVECs
  migration of HUVECs in transwells whose undersurface was coated with βig-h3: enhanced
